The experiment concerns the target Sso7d-IN (full-length HIV-1 integrase fused to Sso7d) (not stated | HIV-1). The experiment in a line: semi-quantitative SDS-PAGE (Coomassie) of the purified complex.

The results in this text go back to PMC11281638.

In turn, “IN-CTD (HIV-1 integrase residues 185-288), His-tagged (from UniProt P12497 186-289) (domain or fragment)” showed a stoichiometry N (CTD per full-length IN) of 0.3.

In turn, “LEDGF-IBD (lens epithelium-derived growth factor IN-binding domain, residues 307-460), His-tagged (from UniProt O75475 307-460) (domain or fragment)” displayed a stoichiometry N (IBD per full-length IN) of 1.
